Assay results reported in publication PMC5727386.
Where a chain is given by its changes, count along the chain named. In names and notes the source's numbering stands. One block for each binder: values may come before it.

Tests used:
[1] = target: Tyrosine phosphatase Sts1, Q8BGG7; assay: co-immunoprecipitation (anti-Bcr-Abl/Abl IP, Sts1 immunoblot, quantified); details: chain shown with the change; BaF3 cells stably transduced with the Bcr-Abl variants; parent: est. 1.0; read off a plot
[2] = target: monobody Mb(Bcr-PH_4), displayed on yeast surface; assay: flow cytometry on cells; monobody displayed on yeast surface; biotinylated target 10 nM to 1 uM in TBS with 0.1% BSA, 30 min at RT; streptavidin-DyLight650; 1:1 binding model; apparent Kd

Tyrosine phosphatase Sts1, Q8BGG7, sequence (Q8BGG7 whole entry): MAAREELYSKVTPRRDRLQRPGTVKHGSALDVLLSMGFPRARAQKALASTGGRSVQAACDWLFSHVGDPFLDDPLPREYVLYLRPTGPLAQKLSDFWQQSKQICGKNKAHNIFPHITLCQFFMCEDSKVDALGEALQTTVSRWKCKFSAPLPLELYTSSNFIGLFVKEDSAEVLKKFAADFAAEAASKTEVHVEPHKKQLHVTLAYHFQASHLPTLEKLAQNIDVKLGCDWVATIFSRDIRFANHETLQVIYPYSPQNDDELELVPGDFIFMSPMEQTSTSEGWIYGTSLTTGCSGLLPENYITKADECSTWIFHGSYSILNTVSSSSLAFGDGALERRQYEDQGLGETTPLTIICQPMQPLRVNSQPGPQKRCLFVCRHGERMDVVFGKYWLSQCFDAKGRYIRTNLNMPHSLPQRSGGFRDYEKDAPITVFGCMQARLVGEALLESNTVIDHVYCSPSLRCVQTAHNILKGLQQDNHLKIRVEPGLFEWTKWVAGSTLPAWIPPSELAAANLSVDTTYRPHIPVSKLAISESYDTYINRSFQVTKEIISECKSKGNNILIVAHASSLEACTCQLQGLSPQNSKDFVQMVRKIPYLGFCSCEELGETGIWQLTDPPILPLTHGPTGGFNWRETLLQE

- ratio to parent [1]: 0.34
B1: Bcr-Abl p210, P11274 R726A (protein)
chain: MVDPVGFAEAWKAQFPDSEPPRMELRSVGDIEQELERCKASIRRLEQEVNQERFRMIYLQTLLAKEKKSYDRQRWGFRRAAQAPDGASEPRASASRPQPAPADGADPPPAEEPEARPDGEGSPGKARPGTARRPGAAASGERDDRGPPASVAALRSNFERIRKGHGQPGADAEKPFYVNVEFHHERGLVKVNDKEVSDRISSLGSQAMQMERKKSQHGAGSSVGDASRPPYRGRSSESSCGVDGDYEDAELNPRFLKDNLIDANGGSRPPWPPLEYQPYQSIYVGGMMEGEGKGPLLRSQSTSEQEKRLTWPRRSYSPRSFEDCGGGYTPDCSSNENLTSSEEDFSSGQSSRVSPSPTTYRMFRDKSRSPSQNSQQSFDSSSPPTPQCHKRHRHCPVVVSEATIVGVRKTGQIWPNDGEGAFHGDADGSFGTPPGYGCAADRAEEQRRHQDGLPYIDDSPSSSPHLSSKGRGSRDALVSGALESTKASELDLEKGLEMRKWVLSGILASEETYLSHLEALLLPMKPLKAAATTSQPVLTSQQIETIFFKVPELYEIHKEFYDGLFPRVQQWSHQQRVGDLFQKLASQLGVYRAFVDNYGVAMEMAEKCCQANAQFAEISENLRARSNKDAKDPTTKNSLETLLYKPVDRVTRSTLVLHDLLKHTPASHPDHPLLQDALRISQNFLSSINEEITPRRQSMTVKKGEHRQLLKDSFMVELVEGARKLAHVFLFTDLLLCTKLKKQSGGKTQQYDCKWYIPLTDLSFQMVDELEAVPNIPLVPDEELDALKIKISQIKNDIQREKRANKGSKATERLKKKLSEQESLLLLMSPSMAFRVHSRNGKSYTFLISSDYERAEWRENIREQQKKCFRSFSLTSVELQMLTNSCVKLQTVHSIPLTINKEDDESPGLYGFLNVIVHSATGFKQSSNLYCTLEVDSFGYFVNKAKTRVYRDTAEPNWNEEFEIELEGSQTLRILCYEKCYNKTKIPKEDGESTDRLMGKGQVQLDPQALQDRDWQRTVIAMNGIEVKLSVKFNSREFSLKRMPSRKQTGVFGVKIAVVTKRERSKVPYIVRQCVEEIERRGMEEVGIYRVSGVATDIQALKAAFDVNNKDVSVMMSEMDVNAIAGTLKLYFRELPEPLFTDEFYPNFAEGIALSDPVAKESCMLNLLLSLPEANLLTFLFLLDHLKRVAEKEAVNKMSLHNLATVFGPTLLRPSEKESKLPANPSQPITMTDSWSLEVMSQVQVLLYFLQLEAIPAPDSKRQSILFSTEV

- ratio to parent [1]: 0.53
B2: Bcr-Abl p210, P11274 R723A; K724A (protein)
chain: B1 chain with R723A, K724A, A726R

- Kd [2]: 33 nM
B3: biotinylated Bcr-Abl PH domain (Avi-tag) (domain or fragment)
chain: GEHRQLLKDSFMVELVEGARKLRHVFLFTDLLLCTKLKKQSGGKTQQYDCKWYIPLTDLSFQMVDELEAVPNIPLVPDEELDALKIKISQIKNDIQREKRANKGSKATERLKKKLSEQESLLLLMSPSMAFRVHSRNGKSYTFLISSDYERAEWRENIREQQKKCFRSFSLTSVELQMLTNSCVKLQTVH
modifications: biotin on the Avi-tag
